We go through four molecules from US20170218075A1 (HONG KONG UNIVERSITY OF SCIENCE AND TECHNOLOGY, published 2017).

Some results are limits rather than exact numbers.

The target in test [1] is T1, human EphA4 fused with IgG1 Fc and Avi-tag (EphA4-Fc) (human, UniProt P54764 20-547).
T1 construct: also called human EphA4-Fc; not shown: human IgG1 Fc; Avi-tag
Put plainly: ELISA, EphA4 coated, IgG1 detected with anti-Fab-HRP; human EphA4; IgG1 format. As to the method:
(§1) FIG. 3. Binding of IgG1s m101, m105, and m119 to mouse and human EphA4 measured by ELISA. Serially diluted IgG1s were added to EphA4-coated wells. HRP-conjugated anti-Fab Ab was used for detection.
(§2) The EphA4 proteins were coated on a 96-well plate (Costar) at 50 ng/well in PBS overnight at 4° C. For phage ELISA, phages from each round of panning (polyclonal phage ELISA) or clones randomly picked from the infected TG 1 cells (monoclonal phage ELISA) were incubated with immobilized antigen. Bound phages were detected with anti-M13-HRP polyclonal Ab (Pharmacia, Piscataway, N.J.). For the soluble Fab binding assay, HRP-conjugated mouse anti-FLAG tag Ab (Sigma-Aldrich) was used to detect Fab binding. For the IgG1 binding assay, HRP-conjugated anti-Fab Ab (Sigma-Aldrich) was used for detection. For competitive ELISA assay, extracellular domain of mouse EphA4 recombinant protein or extracellular domain of mouse EphB2 recombinant protein was pre-coated on the ELISA plate and then incubated with different IgG1s for 1 hr at room temperature. After several washes with DPBS, the EphA4 or EphB2 proteins were then incubated with different biotinylated recombinant mouse ephrin-A/ephrin-B Fc chimera proteins for 1 hr at room temperature. The interaction of EphA4/EphB2 and ephrin-A/ephrin-B was determined via the streptavidin-biotin detection method.
On the technique in general: In an ELISA, binding on a coated surface is turned into a signal by an enzyme label.

The target of test [2] is T2, extracellular domain of mouse EphA4 recombinant protein (mouse, UniProt Q03137 20-547).
T2 construct: also called mouse EphA4 extracellular domain
T2 sequence (Q03137 20-547 limits assumed): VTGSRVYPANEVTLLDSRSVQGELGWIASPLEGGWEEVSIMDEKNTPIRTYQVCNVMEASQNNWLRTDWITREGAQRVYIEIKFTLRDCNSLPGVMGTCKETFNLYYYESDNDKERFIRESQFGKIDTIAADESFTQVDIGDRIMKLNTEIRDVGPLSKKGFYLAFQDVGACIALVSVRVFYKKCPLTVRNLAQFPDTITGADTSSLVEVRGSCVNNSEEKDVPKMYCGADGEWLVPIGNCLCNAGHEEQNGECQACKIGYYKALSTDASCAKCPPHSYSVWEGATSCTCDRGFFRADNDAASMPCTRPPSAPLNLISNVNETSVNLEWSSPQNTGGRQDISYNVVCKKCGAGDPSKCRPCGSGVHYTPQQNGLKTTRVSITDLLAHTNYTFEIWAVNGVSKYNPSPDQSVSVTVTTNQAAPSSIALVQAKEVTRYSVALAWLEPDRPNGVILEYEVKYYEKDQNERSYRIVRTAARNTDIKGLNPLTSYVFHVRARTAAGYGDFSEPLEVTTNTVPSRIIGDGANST
Put plainly: competitive ELISA, mouse EphA4 ECD coated; competitor biotinylated mouse ephrin-A1 Fc. As to the method:
The interaction of EphA4 and ephrin-A that attenuated by the IgG1s was determined via the streptavidin-biotin detection method. IC50 of the 3 IgG1s were determined.
as §2

For test [3], the target named is T3, GST-human EphA4 ligand binding domain (LBD) (human, UniProt P54764 29-209).
T3 construct: also called EphA4 LBD; EphA4 LBD recombinant protein; not shown: glutathione S-transferase (GST) tag
T3 sequence (P54764 29-209): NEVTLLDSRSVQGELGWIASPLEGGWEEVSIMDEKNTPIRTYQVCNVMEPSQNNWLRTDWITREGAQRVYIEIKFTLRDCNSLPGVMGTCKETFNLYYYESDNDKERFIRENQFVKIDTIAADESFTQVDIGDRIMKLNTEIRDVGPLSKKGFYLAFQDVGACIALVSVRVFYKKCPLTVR
Put plainly: isothermal titration calorimetry, 20 µM LBD protein and 1 µM antibody. As to the method: FIG. 5. […] Isothermal titration calorimetry (ITC) experiments were carried out by incubating 20 μM Eph LBD protein in the cell with 1 μM antibodies.
To investigate the binding property of the IgG1s m101, m105, and m119 to EphA4, GST-human EphA4 ligand binding domain (LBD) was expressed and purified. The recognition of EphA4 LBD by the 3 IgG1s m101, m105, and m119 was determined by Western blot analysis. The EphA4 LBD protein was run on SDS-PAGE and they were immunoblotted with the 3 IgG1s (FIG. 4). The kinetics of the 3 IgG1s and EphA4 LBD interaction were further analyzed by conducting isothermal titration calorimetry (ITC) experiments. The heat generated by the interaction of EphA4 LBD recombinant protein with the IgG1s was measured with a sensitive calorimeter.
(In general: Isothermal titration calorimetry measures the heat released or taken up as one component is titrated into another.)

Test [4] addresses T1, human EphA4 fused with IgG1 Fc and …. Put plainly: ELISA, EphA4 coated, Fab detected with anti-FLAG-HRP; human EphA4; Fab, not IgG1. As to the method: FIG. 2. Binding of IgG1s E1 (m101), E2, E5 (m105), and E19 (m119) to mouse and human EphA4 measured by ELISA. Serially diluted IgG1s were added to EphA4-coated wells. HRP-conjugated anti-FLAG Ab was used for detection.
as §2

The target of test [5] is T2, extracellular domain of mouse EphA4 …. Put plainly: competitive ELISA: mouse EphA4 extracellular domain coated, incubated with IgG1 m105, then biotinylated mouse ephrin-B2 Fc; streptavidin-biotin detection, % of inhibition. How it is done:
(§3) Extracellular domain of mouse EphA4 recombinant protein or extracellular domain of mouse EphB2 recombinant protein was first incubated with IgG1 m105, followed by incubating with different biotinylated recombinant mouse ephrin-A/ephrin-B Fc chimeric proteins. The effect of IgG1 m105 on the interaction of EphA4/EphB2 and ephrin-A/ephrin-B was then determined via the streptavidin-biotin detection method.
as §2, with “After several washes with DPBS, the EphA4 or EphB2 proteins were then incubated with different biotinylated recombinant mouse ephrin-A/ephrin-B Fc chimera proteins for 1 hr at room temperature.” left out

Test [6] deals with EphA4 in cultured hippocampal neurons (rat, UniProt D3ZZK3 20-986). Put plainly: cell-based or functional assay.
In test [7] the target is T2, extracellular domain of mouse EphA4 …. Put plainly: competitive ELISA, mouse EphA4 ECD coated; competitor biotinylated mouse ephrin-A1 Fc; ligand mEphrin-A1. As to the method: as §3
as §2, with “After several washes with DPBS, the EphA4 or EphB2 proteins were then incubated with different biotinylated recombinant mouse ephrin-A/ephrin-B Fc chimera proteins for 1 hr at room temperature.” left out

Test [8] shares this target. Put plainly: competitive ELISA, mouse EphA4 ECD coated; competitor biotinylated mouse ephrin-A5 Fc; ligand mEphrin-A5. How it is done:
as §3
as §2, with “After several washes with DPBS, the EphA4 or EphB2 proteins were then incubated with different biotinylated recombinant mouse ephrin-A/ephrin-B Fc chimera proteins for 1 hr at room temperature.” left out

Test [9] concerns the target T4, extracellular domain of mouse EphB2 recombinant protein (mouse, UniProt P54763 19-543).
T4 construct: extracellular domain; also called EphB2 receptor
T4 sequence (looked up): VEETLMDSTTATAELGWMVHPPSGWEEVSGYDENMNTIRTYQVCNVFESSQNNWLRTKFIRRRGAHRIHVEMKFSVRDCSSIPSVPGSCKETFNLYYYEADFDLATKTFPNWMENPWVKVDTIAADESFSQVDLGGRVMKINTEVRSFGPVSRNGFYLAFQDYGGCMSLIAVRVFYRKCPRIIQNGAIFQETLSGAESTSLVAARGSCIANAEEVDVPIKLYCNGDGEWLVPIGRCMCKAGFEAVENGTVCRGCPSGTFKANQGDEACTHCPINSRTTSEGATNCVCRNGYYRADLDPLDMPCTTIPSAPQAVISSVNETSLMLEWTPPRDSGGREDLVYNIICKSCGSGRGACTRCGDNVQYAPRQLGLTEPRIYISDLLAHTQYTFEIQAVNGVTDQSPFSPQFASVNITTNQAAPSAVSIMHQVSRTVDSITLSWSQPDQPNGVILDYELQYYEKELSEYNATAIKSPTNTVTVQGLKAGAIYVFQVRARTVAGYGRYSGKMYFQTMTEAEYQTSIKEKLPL
The experiment in a line: competitive ELISA: mouse EphB2 extracellular domain coated, incubated with IgG1 m105, then biotinylated mouse ephrin-B2 Fc; streptavidin-biotin detection, % of inhibition. As to the method:
as §3
as §2, with “After several washes with DPBS, the EphA4 or EphB2 proteins were then incubated with different biotinylated recombinant mouse ephrin-A/ephrin-B Fc chimera proteins for 1 hr at room temperature.” left out

Test [10] addresses T1, human EphA4 fused with IgG1 Fc and …. The experiment in a line: ELISA, EphA4 coated, IgG1 detected with anti-Fab-HRP. How it is done: as §1, §2
For test [11], the target named is T2, extracellular domain of mouse EphA4 …. The experiment in a line: competitive ELISA, mouse EphA4 ECD coated; competitor biotinylated ephrin-B2 Fc; ligand Ephrin-B2. As to the method: as §3
as §2, with “After several washes with DPBS, the EphA4 or EphB2 proteins were then incubated with different biotinylated recombinant mouse ephrin-A/ephrin-B Fc chimera proteins for 1 hr at room temperature.” left out

T1 sequence (P54764 20-547 limits assumed): as the sequence (Q03137 20-547 limits assumed) above, with A59P, S121N, G124V, Q250R, N251S, S270T, R378K, S406N counted along it

B1: IgG1 m101 (antibody, V domains shown)
VH: QVQLQQSGAEVKKPGSSVKVSCKASGYTFTGYYMHWVRQAPGQGLEWMGGIIPIFGTANYAQKFQGRVTITADKSTSTAYMELSSLRSEDTAVYYCATAPMVCSSTSCYLRGFDYWGQGTLVTVSS
VL: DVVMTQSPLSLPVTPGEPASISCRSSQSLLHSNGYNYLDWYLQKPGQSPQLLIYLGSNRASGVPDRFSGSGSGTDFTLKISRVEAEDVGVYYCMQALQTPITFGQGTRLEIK
notes: Fully human IgG1 made from Fab E1 by re-cloning into the pDR12 vector; also called E1; IgG1 E1
For orientation: EC50 means the concentration needed to bring the measured effect to its halfway point. As a reminder, the IC50 is the concentration needed to halve the response being measured. As usually defined, the Kd is the free concentration of one partner at which half of the binding sites on the other are occupied at equilibrium, for simple one-to-one binding. B1: the EC50 in test [1] came to 1 nM. Moreover, in [2], the IC50 is 0.71 nM. The molecule further yielded an equilibrium dissociation constant (Kd) in test [3] of about 83 nM.

B2: Fab E1 (m101) (Fab, V domains shown)
VH: QVQLQQSGAEVKKPGSSVKVSCKASGYTFTGYYMHWVRQAPGQGLEWMGGIIPIFGTANYAQKFQGRVTITADKSTSTAYMELSSLRSEDTAVYYCATAPMVCSSTSCYLRGFDYWGQGTLVTVSS
VL: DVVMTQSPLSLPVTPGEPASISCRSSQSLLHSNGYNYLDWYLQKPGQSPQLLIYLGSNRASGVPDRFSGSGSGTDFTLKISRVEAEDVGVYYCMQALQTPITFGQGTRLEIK
notes: Soluble Fab from the phage library, detected with anti-FLAG antibody (FLAG tag); also called clone E1; Fab m101
As for B2, the EC50 in test [4] was found to be 5 nM.

B3: IgG1 m105 (antibody, V domains shown)
VH: EVQLVQSGAEVKKPGSSVKVSCKASGGTFSSYAISWVRQAPGQGLEWMGGIIPIFGTANYAQKFQGRVTMTRDTSISTAYMELSRLRSDDTAVYYCARELLYCSSTSCGTHGFDIWGQGTMVTVSS
VL: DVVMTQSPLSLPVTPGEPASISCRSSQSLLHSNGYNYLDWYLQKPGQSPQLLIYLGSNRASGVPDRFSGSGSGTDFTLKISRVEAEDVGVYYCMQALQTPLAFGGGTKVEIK
notes: Fully human IgG1 made from Fab E5 (pDR12 vector); also called E5; 105L
In the case of B3, the IC50 is 0.78 nM in test [5]; 0.34 nM in [7]; 22.7 nM in test [8]; 0.35 nM in [2]; 1.81 nM in test [11]. Moreover, in [6], the “IC50 of inhibition of ephrin-A1 mediated EphA4 clusters” value is 4.16 µg/mL. In addition, in test [9], the binding result is “no binding (tested: 1000 nM (Log [nM] = 3))”. Further, the Kd in [3] was about 8.6 nM. Also, the EC50 in [10] is under 1 nM.

B4: Fab E5 (m105) (Fab, V domains shown)
VH: EVQLVQSGAEVKKPGSSVKVSCKASGGTFSSYAISWVRQAPGQGLEWMGGIIPIFGTANYAQKFQGRVTMTRDTSISTAYMELSRLRSDDTAVYYCARELLYCSSTSCGTHGFDIWGQGTMVTVSS
VL: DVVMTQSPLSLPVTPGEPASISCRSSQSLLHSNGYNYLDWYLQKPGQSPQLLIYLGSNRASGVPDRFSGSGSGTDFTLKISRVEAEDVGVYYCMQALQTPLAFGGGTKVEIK
notes: Soluble Fab, detected with anti-FLAG antibody; also called clone E5; Fab m105
With B4, the EC50 in test [4] came out at 2 nM.
